{"source": "paper PMC6038053", "about": "“Structural and Functional Insights Into Lysostaphin–Substrate Interaction” (Frontiers in Molecular Biosciences, 2018)", "key": {"[1]": {"conditions": "effect of presence of lysine, relative to pentaglycine"}, "[2]": {"assay": "Pentaglycine cleavage by lysostaphin monitored by 1H NMR", "type": "biochemical", "conditions": "for Relative activity: PBS pH 7.2, 21 h, 37 °C", "method": "Pentaglycine cleavage by lysostaphin was monitored by ^1H NMR as described previously (Raulinaitis et al., [2017a]). Reactions took place in phosphate buffer saline (PBS), pH 7.2, with >90% D2O by volume as a solvent and final volumes were 600 μL. Initial pentaglycine (Sigma-Aldrich) and lysostaphin concentrations were 1 mM and 2.25 μM, respectively. Metal ions (ZnCl2, CoCl2, CuCl2, and MnCl2) were added as needed. Residual activity of lysostaphin “apo” form was taken into account in activity calculations. Measurements were carried out by using a Bruker Avance III 600 MHz spectrometer, equipped with a QCI ^1H/^13C/^15N/^31P cryoprobe and a SampleJet automated sample changer. The preheater of the sample changer was used for sample incubation when product formation was measured as a time series with 3-h intervals for 48 h. Single time-point samples were incubated in an incubator for 21 h and reactions were quenched by heating at 90°C for 15 min before proton spectra acquisitions at 37°C. The data were processed with Bruker TopSpin 3.5 software.\nProton NMR allows for direct and real-time reaction monitoring devoid of intricacies of cellular suspension (Raulinaitis et al., [2017a]). Scission of pentaglycine by lysostaphin was monitored for 48 h by ^1H NMR and under conditions of this study its catalytic rate appeared to be limited only by saturation with the substrate (Supplementary Figure 4). The substrate turnover rate by the enzyme in the first 3 h of the reaction is estimated to be in the order of 0.006 s^−1.\nFigure 4 Lysostaphin activity dependence on zinc, cobalt, copper and manganese cofactors. Lysostaphin was incubated with pentaglycine (2.25 μM and 1 mM concentrations, respectively) in PBS buffer, pH 7.2, for 21 h at 37°C. Total cofactor ratios to protein were 1:1 and 3:1, EDTA excess was 70-fold. […] Activity was adjusted to one zinc-bound lysostaphin as 100% reference point. Bars represent standard error of the mean (S.E.M) of at least three independent measurements. TEXT PRINTED IN THE PICTURE: 1 Zn: Relative activity, %: 100.0 | 3 Zn: Relative activity, %: 79.8 | 1 Cu: Relative activity, %: 96.4 | 3 Cu: Relative activity, %: 183.3 | 1 Mn: Relative activity, %: 38.8 | 3 Mn: Relative activity, %: 40.3 | 1 Co: Relative activity, %: 79.1 | 100 EDTA: Relative activity, %: 12.8"}, "[3]": {"target": "T1, lysostaphin CWT domain (Staphylococcus simulans, UniProt P10547)", "T1 construct": "DNA encoding the CWT domain (residues 402-493) was amplified; GST (from the pGEX-2T vector); made in house; host or cells: E. coli BL21 (DE3)", "T1 sequence (P10547 402-493)": "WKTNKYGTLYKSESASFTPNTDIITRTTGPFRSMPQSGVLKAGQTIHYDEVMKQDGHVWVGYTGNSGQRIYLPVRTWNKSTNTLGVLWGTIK", "type": "binding", "method": "The pentaglycine binding site on the CWT domain was determined by comparing the ^1H, ^15N, and ^1H, ^13C HSQC spectra of full-length lysostaphin and CWT domain acquired in the presence and absence of a large amount, ~170 molar excess, of KGGGGG and GGGGGK hexapeptides (Sigma-Aldrich). […] CSPs, calculated as Δδ = (ΔδH^2+(0.154 × ΔδN)^2)^1/2, were plotted as a function of the molar ratio of titrated ligand to CWT domain. Dissociation constants for individual residues were obtained by nonlinear least squares fitting, as implemented in the program xcrvfit (www.bionmr.ualberta.ca/bds/software/xcrvfit). Site-specific dissociation constants were calculated as averages of dissociation constants of individual residues within the site. In all binding site studies protein to zinc concentration ratio was 1:1."}, "[4]": {"tested_on": "CWT binding to S. aureus cells", "set-up": "method as in Gründling and Schneewind, 2006", "conditions": "excess of pentaglycine; ref Gründling and Schneewind, 2006; cited from earlier work"}, "[5]": {"target": "T2, lysostaphin cell wall targeting (CWT) domain (residues 402-493) (Staphylococcus simulans, UniProt P10547 402-493)", "T2 construct": "also called targeting domain; SH3b domain; source: E. coli BL21 (DE3), purified (Glutathione Sepharose, thrombin release, gel filtration on Superdex 75)", "T2 sequence (P10547 402-493)": "as above", "assay": "NMR titration; 1H,15N and 1H,13C HSQC spectra of the CWT domain with and without ~170 molar excess of hexapeptide; chemical shift perturbations; protein to zinc 1:1", "conditions": "both partners purified"}, "[6]": {"conditions": "~80 molar excess of the peptide, data not shown"}}, "note": "“Also recorded” adds a separate entry of the source. Where two headings read alike, the source gives them in different places. Non-standard residues stand in square brackets, D forms with d. Residues, ends and D or L forms follow the SMILES beside them.", "data": [{"molecule": "KGGGGG [KG5]", "values": [{"measurement": "solubility", "setting": "[1]", "value": "significantly enhanced the solubility"}]}, {"molecule": "Lysostaphin: S. simulans zinc-dependent endopeptidase with N-terminal catalytic domain and C-terminal cell wall targeting domain", "values": [{"measurement": "Relative activity", "setting": "[2]; 1 Co (1:1 cofactor to protein), adjusted to one zinc-bound lysostaphin = 100%, 2.25 μM lysostaphin, 1 mM pentaglycine, n ≥ 3", "value": 79.1, "unit": "%"}, {"measurement": "Relative activity", "setting": "[2]; 1 Cu (1:1 cofactor to protein), adjusted to one zinc-bound lysostaphin = 100%, 2.25 μM lysostaphin, 1 mM pentaglycine, n ≥ 3", "value": 96.4, "unit": "%"}, {"measurement": "Relative activity", "setting": "[2]; 1 Mn (1:1 cofactor to protein), adjusted to one zinc-bound lysostaphin = 100%, 2.25 μM lysostaphin, 1 mM pentaglycine, n ≥ 3", "value": 38.8, "unit": "%"}, {"measurement": "Relative activity", "setting": "[2]; 1 Zn (1:1 cofactor to protein), reference point 100%, 2.25 μM lysostaphin, 1 mM pentaglycine, at least three independent measurements", "value": 100.0, "unit": "%"}, {"measurement": "Relative activity", "setting": "[2]; 3 Cu (3:1 cofactor to protein), adjusted to one zinc-bound lysostaphin = 100%, 2.25 μM lysostaphin, 1 mM pentaglycine, n ≥ 3", "value": 183.3, "unit": "%"}, {"measurement": "Relative activity", "setting": "[2]; 3 Mn (3:1 cofactor to protein), adjusted to one zinc-bound lysostaphin = 100%, 2.25 μM lysostaphin, 1 mM pentaglycine, n ≥ 3", "value": 40.3, "unit": "%"}, {"measurement": "Relative activity", "setting": "[2]; 3 Zn (3:1 cofactor to protein), adjusted to one zinc-bound lysostaphin = 100%, 2.25 μM lysostaphin, 1 mM pentaglycine, n ≥ 3", "value": 79.8, "unit": "%"}, {"measurement": "Relative activity", "setting": "[2]; 100 EDTA (EDTA excess, residual activity), adjusted to one zinc-bound lysostaphin = 100%, 2.25 μM lysostaphin, 1 mM pentaglycine, n ≥ 3", "value": 12.8, "unit": "%"}, {"measurement": "change of catalytic activity", "setting": "[2]; Cu^2+ in excess", "value": "activity increases"}, {"measurement": "cofactor suitability for catalytic activity", "setting": "[2]; Mn^2+", "value": "weak cofactor"}, {"measurement": "change of catalytic activity", "setting": "[2]; excess of zinc (second zinc bound by catalytic histidines H329 and H360)", "value": "reduces lysostaphin pentaglycine cleaving activity; also recorded: partial inhibition"}, {"measurement": "substrate turnover rate", "setting": "[2]; first 3 h of the reaction, 1 mM pentaglycine, 2.25 μM lysostaphin, PBS pH 7.2, 37 °C, 1H NMR every 3 h for 48 h, estimated", "value": "~0.006", "unit": "s⁻¹"}, {"measurement": "cofactor suitability for catalytic activity", "setting": "[2]; metal cations Zn^2+, Co^2+, and Cu^2+", "value": "suitable cofactors"}]}, {"molecule": "C[C@H](N)C(=O)N[C@H](CCC(=O)O)C(=O)N[C@@H](CCCCN)C(=O)NCC(=O)NCC(=O)NCC(=O)NCC(=O)NCC(=O)N[C@@H](C)C(=O)N[C@H](CCC(=O)O)C(=O)N[C@@H](CCCCN)C(=O)N[C@H](C)C(=O)O", "note": "(H-A[dE]KGGGGGA[dE]K[dA]-OH; N-terminus and C-terminus assumed)", "values": [{"measurement": "CSPs", "setting": "[3]; ~24 molar excess", "value": "significant CSPs"}]}, {"molecule": "pentaglycine", "values": [{"measurement": "affinity of targeting (CWT) domain in words", "setting": "[3]; abstract / conclusions summary", "value": "very low affinity; also recorded: extremely low affinity"}, {"measurement": "blocking of CWT binding to S. aureus cells", "setting": "[4]", "value": "cannot be blocked"}]}, {"molecule": "N-acetylmuramyl-L-alanyl-D-isoglutamine hydrate [N-acetylmuramyl-L-A-D-γ-Q hydrate]", "values": [{"measurement": "CSPs", "setting": "[3]; [6]", "value": "very small CSPs"}, {"measurement": "affinity of CWT domain", "setting": "[3]; [6]", "value": "no significant affinity"}]}, {"molecule": "GGGGGK [G5K]", "values": [{"measurement": "Largest peak shifts, Δδ (CSP)", "setting": "[3]; residues N405, Y411, G430-F432, V452, M453, Y472, ~170 molar excess", "value": "≥ 0.10", "unit": "ppm"}, {"measurement": "solubility", "setting": "[1]", "value": "significantly enhanced the solubility"}]}, {"molecule": "GGGGGK (also called G5K; source: bought: Sigma-Aldrich)", "note": "[GGGGGK hexapeptide]", "values": [{"measurement": "Kd", "setting": "[5]", "value": "> 10", "unit": "mM"}]}]}
